Target: Entamoeba histolytica ADP-forming acetyl-CoA synthetase, wild type (Entamoeba histolytica)
Experiment: SEC

stoichiometry N: 2
Substance: Entamoeba histolytica ADP-forming acetyl-CoA synthetase, wild type (enzyme)

From article PMC5330840
